Test [1] concerns the target NiVM G ectodomain (residues 96-602) (Nipah virus Malaysia (NP_112027), UniProt Q9IH62). The test can be described thus: ELISA.
Test [2] has as its target MojV G head domain (residues 176-625) (Mòjiāng virus (YP_009094095), UniProt W8TIR7). As to the kind of experiment: ELISA.
Test [3] has as its target LayV G head domain (residues 176-625) (Langya virus (UUV47206), UniProt A0AAX3C924). As to the kind of experiment: ELISA.
Test [4] has as its target T1, NiVM G head domain (residues 176-602) (Nipah virus Malaysia (NiVM), UniProt Q9IH62). As to the kind of experiment: BLI.
Test [5] addresses T1, NiVM G head domain (residues 176-602). The test can be described thus: cryo-EM structure.
Test [6] deals with deglycosylated NiVM G head domain without the His-tag (for crystallization) (Nipah virus Malaysia (NP_112027), UniProt Q9IH62). As to the kind of experiment: crystal structure.
Test [7] has as its target HeV G head domain (residues 176-605) (Hendra virus (NP_047112, isolate …, UniProt O89343)). The test can be described thus: ELISA.
Test [8] deals with T2, NiVM G head domain (residues 176-602) (Nipah virus Malaysia (NiVM), UniProt Q9IH62 176-602).
T2 sequence: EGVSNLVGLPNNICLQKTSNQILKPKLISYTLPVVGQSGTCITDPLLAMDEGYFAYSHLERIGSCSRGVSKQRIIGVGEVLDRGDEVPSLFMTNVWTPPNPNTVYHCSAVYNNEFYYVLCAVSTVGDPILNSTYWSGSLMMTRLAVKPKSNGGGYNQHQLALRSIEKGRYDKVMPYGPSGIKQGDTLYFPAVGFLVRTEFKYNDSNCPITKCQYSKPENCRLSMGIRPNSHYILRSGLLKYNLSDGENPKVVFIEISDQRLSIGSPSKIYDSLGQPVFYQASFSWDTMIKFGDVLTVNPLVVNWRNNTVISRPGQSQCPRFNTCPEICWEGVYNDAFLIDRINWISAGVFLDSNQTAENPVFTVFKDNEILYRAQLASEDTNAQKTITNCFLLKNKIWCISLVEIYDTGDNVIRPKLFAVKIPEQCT
As to the kind of experiment: BLI.

HeV G head domain (residues 176-605) (Hendra virus, sequence (O89343 176-604): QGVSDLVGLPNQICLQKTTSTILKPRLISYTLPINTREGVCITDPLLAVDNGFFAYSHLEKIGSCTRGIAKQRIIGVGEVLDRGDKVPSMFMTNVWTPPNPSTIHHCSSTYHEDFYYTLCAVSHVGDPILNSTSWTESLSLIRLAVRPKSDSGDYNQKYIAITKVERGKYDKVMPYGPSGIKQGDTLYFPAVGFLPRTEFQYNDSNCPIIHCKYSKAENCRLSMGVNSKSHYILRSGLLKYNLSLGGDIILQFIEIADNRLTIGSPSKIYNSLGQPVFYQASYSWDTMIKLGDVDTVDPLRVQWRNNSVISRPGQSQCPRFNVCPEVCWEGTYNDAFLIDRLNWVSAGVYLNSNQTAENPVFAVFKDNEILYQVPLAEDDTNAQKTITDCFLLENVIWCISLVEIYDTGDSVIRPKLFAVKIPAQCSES

B1: S2B10 mAb (IgG) (antibody, V domains shown)
VH: QMQLQESGPGLVKPSQSLSLTCTVTGYSITSDYAWNWIRQFPRNKLEWMGFITYSGSTSYNPSLKSRISLTRDTSKNQFFLQLSSVTTEDTATYYCARSGANWDWFAYWGQGTLVTVSA
VL: DIQMTQSPASLAVSLGQRATISCRASESVDNYGNSFMHWYQQKPGQPPKLLIYRASKLESGIPARFSGSGSRTDFTLTINPVEADDVATYHCQQSNEDPWTFGGGTKLEIK
With B1, the binding result in test [1] is recorded as “binds”; in test [2], “no binding (tested: 1 μg/mL)”; in test [3], “no binding (tested: 1 μg/mL)”; in test [4], “binds”.

B2: S2B10 Fab (Fab, V domains shown)
VH: B1 VH
VL: B1 VL
Regarding B2, the binding result in test [5] was “binds”.

B3: S1E2 mAb (IgG) (antibody, V domains shown)
VH: QMQLQESGPGLVKPSQSLSLTCSVTGYSITSGYYWNWIRQFSGNKLEWMGYINHDGSKNYNPSLKNRISITRDTSKNQFFLKLNSVTTEDTATYYCARDYGSYYYPMDYWGQGTSVTVSS
VL: EIVLTQSPPIMSASPGEKVTITCSASSSVTFMHWFQQKPGTSPKLWIFSTSNLASGVPARFSGSGSGTSYSLTISRMEAEDAATYYCQQRSSYPFTFGSGTKLEIK
Take B3: the binding result is “binds” in test [1], “no binding (tested: 1 μg/mL)” in test [2], “no binding (tested: 1 μg/mL)” in test [3] and “binds” in test [4].

B4: S1E2 Fab (Fab, V domains shown)
VH: B3 VH
VL: B3 VL
On to B4, for which the binding result in test [5] is listed as “binds”.

B5: LN1F9 Fab (Fab, V domains shown)
VH: EVKLVESGGGLVKPGGSLKLSCAASGFSFRNYAMSWVRQSPEKRLEWVAEVSSGGGYTYYPDTVTGRFTISRDNAKNILYLEMSSLRSEDTAMYYCTRDPDSSGYLAWFAYWGQGTLVTVSA
VL: DILLTQSPASLSASVGETVTITCRASENINSYLAWYQQKQGKSPQLLVYNAKTLAEGVPSRFSGSGSDTQFSLKINTLQPEDFGTYYCQHHSGTPYTFGGGTKLEIK
For the molecule B5, the binding result in test [6] was “binds”.

B6: LN1F9 mAb (IgG) (antibody, V domains shown)
VH: B5 VH
VL: B5 VL
Consider B6, for which the binding result in test [1] is “binds”; in test [2] it was “no binding (tested: 1 μg/mL)”; in test [7], “binds”; in test [3] it was “no binding (tested: 1 μg/mL)”; in test [4], “binds”.

B7: LN3D3 Fab (Fab, V domains shown)
VH: EVKLEESGPELVKPGASVKMSCKASGYTFTNYVMHWVKQKPGQGLEWIGYVNPYNDGTQYNEKFRDKATLTSDKSSSTVYMELNSLTSEDSAVYYCTRGDYPYWVFEVWGAGTTVTVSS
VL: EIQMTQSPATLSVTPGDSVSLSCRASQSISNNLHWYQQKSHESPRLLIKYASQSISGIPSRFSGSGSGTDFTLSINNLETEDFGMYFCQHSDSWPFTFGSGTKLEIK
Regarding B7, in test [5], the binding result is “binds”.

B8: LN3D3 mAb (IgG) (antibody, V domains shown)
VH: B7 VH
VL: B7 VL
Take B8: the binding result is reported as “binds” in test [1], “no binding (tested: 1 μg/mL)” in test [2], “no binding (tested: 1 μg/mL)” in test [3] and “binds” in test [4].

B9: human ephrin-B2 (residues 27-167) (receptor)
chain: SIVLEPIYWNSSNSKFLPGQGLVLYPQIGDKLDIICPKVDSKTVGQYEYYKVYMVDKDQADRCTIKKENTPLLNCAKPDQDIKFTIKFQEFSPNLWGLEFQKNKDYYIISTSNGSLEGLDNQEGGVCQTRAMKILMKVGQD
In the case of B9, in test [8], the binding result is listed as “binds”.

These data come from article PMC12780214 (NPJ Vaccines, 2025).
